Numbered stars: 1 amine (or outer) side, 2 acyl side, 3 side chain; on linkers, the order of the positions; unused ones are H or OH. Bridge positions count the residues as written; N and C are the ends. Square brackets hold non-standard residues; d marks the D form. Triazole bridges read from a SMILES are 1,4-linked. Peptide text beside a SMILES is read from it. * marks the point of attachment. DOTA = O=C(O)CN1CCN(CC(=O)O)CCN(CC(=O)*)CCN(CC(=O)O)CC1; Pteroyl = Nc1nc2ncc(CNc3ccc(C(=O)*)cc3)nc2c(=O)[nH]1; Butanoyl(4-(4-I-phenyl)) = O=C(CCCc1ccc(I)cc1)*; Lys(N3) = [N-]=[N+]=NCCCC[C@H](N)C(=O)O; γGlu = O=C(O)[C@H](CCC(=O)[*:2])N[*:1]; X3 = O=C(CO/N=C/c1ccc(F)cc1)*; AEEEA = NCCOCCOCCOCC(=O)O; Pra = C#CC[C@H](N)C(=O)O
Columns and labels:
Plasma stability, human = conditions: Hu, 2 μM, 37° C.
Experimental: (§4) Plasma was thawed in a 37° C. water bath. Residual clots were removed via centrifugation at 4000 rpm for 5 minutes. The pH of the plasma was adjusted to 7.4 if required. Test articles were diluted to 100 μM by diluting a 1 mM working solution (in DMSO) with 45% methanol in water. To 98 μL of plasma was added 2 μL of the 100 μM solution, resulting in 2 μM final concentration of the test article. Samples were incubated at 37° C. in a water bath. At the indicated time points (0, 10, 30, 60, 120 minutes) 100 μL of 4% H3PO4 was added followed by 800 μL of stop solution (200 ng/mL tolbutamide and 200 ng/mL labetalol in 100% acetonitrile). The samples were centrifuged and the plasma protein-free supernatant (100 μL) was subjected to LC-MS/MS analysis.

Plasma stability, mouse = conditions: Mu, 2 μM, 37° C.
Experimental: as §4

[1] = system: OVCAR3 (FOLR1+) tumor bearing NSG mice; assay: in vivo; conditions: mouse
Experimental: Female, 7-week-old NSG mice were housed under pathogen-free conditions. Water and food were provided ad libitum. To create mice with FOLR1+ ovarian xenograft tumors, mice were injected subcutaneously with OVCAR3 cells (1×10^7 cells per mouse) resuspended in 50% Matrigel in PBS into the shoulder region. Tumor growth was monitored by caliper measurements. OVCAR3 is a human ovarian adenocarcinoma known to over-express FOLR1.
^68Ga PET imaging was used to study in vivo biodistribution of heterobiligands in non-tumor bearing (healthy) mice and OVCAR3 tumor bearing mice. 100-200 μCi of [^68Ga]DOTA-labeled heterobiligand was administered intravenously (i.v.) via the tail vein of each mouse. Dynamic PET imaging was performed from 0-1 h, followed by acquisition of static PET images at 2 h and 4 h post-injection. CT scans were acquired for anatomical reference. Imaging was performed on an Inveon microPET/CT small animal scanner. The PET signal was quantitated by three-dimensional ROI analysis and represented as percent injected dose (% ID) vs. time ([…]) for major organs including tumor, liver, heart, lung, bladder, and kidney.
Evaluation of a folate-hshta (SEQ ID NO:6) Nterm heterobiligand bearing both an albumin binder and DOTA chelator in PET was a priority, given that DOTA can accommodate both ^68Ga for imaging and ^177Lu for radiotherapy. A 200 μCi dose of ^68Ga-labeled folate-hshta-PEG3-Lys(MPBA)-Lys(DOTA) (SEQ ID NO:6) (compound #2809) was injected i.v. via tail vein in an NSG mouse bearing s.c. human OVCAR3 (FOLR1+) tumor. ^68Ga PET/CT imaging scans were performed at 0-1 h (dynamic), 2 h (static), and 4 h (static). […] The time-course biodistribution of ^68Ga-labeled folate-hshta-PEG3-Lys(MPBA)-Lys(DOTA) (SEQ ID NO:6) (compound #2809) was calculated to quantify the uptake in major organs including the tumor (FIG. 17). […] Larger tumors (490 mm^3) were also evaluated with the ^68Ga-chelated PET probe.
Images were captured for compound #1307 at the time points 5 min, 10 min, 15 min, 30 min, 1 h, 2 h, and 4 h. PET/CT images were taken following the injection of 4 female NSG mice with ^68Ga-chelated compound #2809. […] Images for mouse 4 are shown in FIG. 23 (Compounds #1307 and #2809) and FIG. 24 (Compound #1307).
Biodistribution was initially evaluated by PET imaging, as the time frame for a significant portion of clearance is roughly similar to the time frame of PET imaging experiments. Indi ^68Ga-7327 was injected via the tail vein into OVCAR3 (FOLR+) tumor implanted female NSG mice once the tumor size reached 200 mm^3, and microPET/CT scans were acquired at 5 min, 10 min, 15 min, 30 min, 1 h, 2 h, and 4 h post-injection. PET images were corrected for CT-based photon attenuation, detector normalization and radioisotope decay and converted to units of percent injected dose per cc (% ID/cc).

[2] = Plasma protein binding (equilibrium dialysis), mouse; format: in vitro ADME, CD-1 mouse
Experimental: (§1) HTD 96 a/b regenerated cellulose membrane strips with mass cutoff of 12-14 kDa were soaked in ultra-pure water at room temperature for 1 hour. Each swelled membrane was then soaked in 20:80 ethanol:water for 20 minutes.
(§2) Just prior to the experiment, the membranes were re-soaked in ultra-pure water. Plasma was prepared by thawing under cold water. The plasma was centrifuged to remove any clots and pH was adjusted to 7.0-8.0. Test articles and control compounds were diluted to 2 μM. The dialysis device was loaded by transferring 150 μL of the test article (in triplicate) to the donor side. The dialysis device was placed in a humidified incubator at 37° C. with 5% CO2 in a shaking platform that rotated slowly for 4 hours. After incubation, 50 μL of the supernatant was taken from both sides and analyzed by LC-MS/MS.
(§3) To optimize the albumin binding potential of the heterobiligand, a plasma protein binding (PPB) experiment was performed. This experiment measured the amount of test article bound and free after equilibrating with plasma. Compound #6305 (folate-hshta-Lys(MPBA)-Gly-Phe-Lys(DOTA) (SEQ ID NO:6)), which contains the MPBA albumin binder, was 96.26% bound to mouse plasma and 98.34% bound to human plasma. […] In mouse and human plasmas 99.6% and 99.5% was bound, respectively.

[3] = Plasma protein binding (equilibrium dialysis), human; format: in vitro ADME
Experimental: as §1, §2, §3

`CC(C)[N+](C)(CCOC(=O)C1c2ccccc2Oc2ccccc21)C(C)C` [Propantheline bromide, reference compound] showed a half-life at 2 μM (Plasma stability, human; pH 7.4, Plasma Stability (t 1/2)) of 11.6 min and a half-life at 2 μM (Plasma stability, mouse; CD-1, mouse, pH 7.4, Plasma Stability (t 1/2)) of 44.8 min.

In the case of `C[C@H](O)[C@H]1NC(=O)[C@@H](Cc2c[nH]cn2)NC(=O)[C@@H](CO)NC(=O)[C@@H](Cc2c[nH]cn2)NC(=O)[C@@H](NC(=O)CC[C@H](NC(=O)c2ccc(NCc3cnc4nc(N)[nH]c(=O)c4n3)cc2)C(=O)O)Cc2cn(nn2)CCCC[C@@H](C(=O)N[C@@H](CCCCNC(=O)CCCc2ccc(I)cc2)C(=O)NCC(=O)N[C@@H](Cc2ccccc2)C(=O)N[C@@H](CCCCNC(=O)CN2CCN(CC(=O)O)CCN(CC(=O)O)CCN(CC(=O)O)CC2)C(=O)O)NC(=O)[C@@H](C)NC1=O` [^68Ga-chelated compound #1307, metal not drawn] ({Pteroyl-γGlu}-[Pra][dH][dS][dH][dT][dA][Lys(N3)]K(Butanoyl(4-(4-I-phenyl)))GFK(DOTA)-OH; triazole 1-7), the “heart exposure compared to compound #2809” value [1] is reported as “less than two-fold increase”, the kidney absorption [1] is reported as “very low kidney absorption” and the “kidney dose compared to compound #2809” value [1] is reported as “seven-fold reduction”. For the same compound, the “lung accumulation compared to compound #2809” value [1] was “greater than three-fold increase”.

In the case of `C[C@H](O)[C@H]1NC(=O)[C@@H](Cc2c[nH]cn2)NC(=O)[C@@H](CO)NC(=O)[C@@H](Cc2c[nH]cn2)NC(=O)[C@@H](NC(=O)CC[C@H](NC(=O)c2ccc(NCc3cnc4nc(N)[nH]c(=O)c4n3)cc2)C(=O)O)Cc2cn(nn2)CCCC[C@@H](C(=O)NCCOCCOCCOCC(=O)N[C@@H](CCCCNC(=O)CO/N=C/c2ccc(F)cc2)C(N)=O)NC(=O)[C@@H](C)NC1=O` [compound #2, Fol-hshta-PEG3-Lys(FB)] ({Pteroyl-γGlu}-[Pra][dH][dS][dH][dT][dA][Lys(N3)][AEEEA]K(X3)-NH2; triazole 1-7), the recovery [2] is reported as 115%, the fraction unbound ([2]; mouse, plasma) is reported as 0.798 and the half-life (Plasma stability, human; Plasma Stability (t 1/2)) is reported as > 289 min. For the same compound, the recovery [3] was 85%, the fraction unbound ([3]; human, plasma) was 0.57 and the half-life (Plasma stability, mouse; mouse, Plasma Stability (t 1/2)) was > 289 min.

Source: patent US11733246B2, “Compositions, imaging, and therapeutic methods targeting folate receptor 1 (FOLR1)” (Indi Molecular, Inc., priority 2020, dated 2023)
